This is an account of results in US20140186897A1, “TRANSFORMANT OF YEAST OF GENUS SCHIZOSACCHAROMYCES, METHOD FOR PRODUCING SAME, METHOD FOR PRODUCING ß-GLUCOSIDASE, AND CELLULOSE DEGRADATION METHOD” (ASAHI GLASS COMPANY, LIMITED, priority 2011, published 2014).

Changes are numbered by the printed parent chain. Names may count otherwise.

Data set [1] is described as follows: glucosidase activity measurement of culture supernatant (pNPG). Format: biochemical. As for the experimental part: A mutant strain which formed a large colony was selected from P3AaBGL1 mutant strain library. Then, thus selected strain and P3ASP3326 strain as the original strain were cultivated in 150 μl/well (96-well plate) of YES medium at 30° C. for two days. 50 μl of each culture supernatant was diluted by 150 μl of 50 mM acetate buffer (pH 5.0) to prepare a diluted enzyme sample. Then, the enzymatic activity of the sample was measured in accordance with the following method.
To 10 μl of 20 mM p-nitrophenyl-β-D-glucoside (hereinafter abbreviated as pNPG), 10 μl of 1M sodium acetate buffer solution (pH 5.0) and 130 μl of water were added, and then 50 μl of the diluted enzyme sample was introduced for reacting them at 37° C. for 10 minutes. 100 μl of the reaction mixture was mixed with 100 μl of 2% sodium carbonate solution to terminate reaction, and then the amount of free p-nitrophenol was colorimetrically measured at a wavelength of 450 nm.
The amount of enzyme that produces 1 μmol of p-nitrophenol per minute was defined as 1 U.
The P3AaBGL1 mutant strain obtained as above was cultivated in YES medium at 30° C. for one day. 100 μl of the culture broth was inoculated on 5 ml of YPD medium (1% of yeast extract, 2% of peptone, and 2% of glucose), followed by cultivation at 30° C. for two days. Thereafter, the culture broth was centrifuged to obtain a culture supernatant.
(§1) By using the above-obtained culture supernatant of the P3AaBGL1 mutant strain, a diluted enzyme sample was prepared, and then the enzymatic activity of the sample was measured in accordance with the above-described activity measurement method. Further, the glucose inhibition at a final glucose concentration of from 0.1 to 200 mM and the thermostability at a warming temperature of from 50 to 75° C. were measured for evaluation.

Data set [2] can be described thus: glucose inhibition measurement (residual glucosidase activity in the presence of glucose). To be noted: for Residual glucosidase activity, Glc 0 mM / Residual glucosidase activity, Glc 1 mM / Residual glucosidase activity, Glc 5 mM / Residual glucosidase activity, Glc 10 mM / Residual glucosidase activity, Glc 20 mM / Residual glucosidase activity, Glc 50 mM / Residual glucosidase activity, Glc 100 mM / Residual glucosidase activity, Glc 200 mM: Example 9; for Residual glucosidase activity, Glc 0 mM: glucose 0 mM (reference set to 100); for Residual glucosidase activity, Glc 1 mM: glucose 1 mM; for Residual glucosidase activity, Glc 5 mM: glucose 5 mM; for Residual glucosidase activity, Glc 10 mM: glucose 10 mM; for Residual glucosidase activity, Glc 20 mM: glucose 20 mM; for Residual glucosidase activity, Glc 50 mM: glucose 50 mM; for Residual glucosidase activity, Glc 100 mM: glucose 100 mM; for Residual glucosidase activity, Glc 200 mM: glucose 200 mM; for resistance to glucose inhibition (in words): compared with P3AaBGL1 / β-glucosidase without the mutation. The data set is classed as biochemical. As to the method: To 10 μl of 20 mM pNPG, 10 μl of 1M sodium acetate buffer solution (pH 5.0) and from 4 to 10 μl of 1M glucose (final concentration of from 20 to 50 mM) were added, followed by addition of water up to the total volume of 150 μl. Thereafter, 50 μl of the diluted enzyme sample was introduced for reacting them at 37° C. for 10 minutes. As a control, a glucose-free reaction mixture was used, and then the reaction was carried out at 37° C. for 10 minutes, in the same manner. 100 μl of each reaction mixture was mixed with 100 μl of 2% sodium carbonate solution to terminate reaction, and then the amount of liberated p-nitrophenol was colorimetrically measured at a wavelength of 450 nm.
The ratio (%) of the colorimetric value of each reaction mixture to the colorimetric value of the control sample (glucose-free sample) was defined as the residual activity after glucose inhibition.
as §1
(§2) 11F10 strain, 22A12 strain, 28C02 strain, 29F09 strain and mutBGL1 strain selected from the mutant strains, and ASP3326 strain as the original strain were cultivated in a Sakaguchi flask containing 100 ml of YPD medium at 30° C. for two days. To each of the culture supernatants obtained by cultivating them, […] was added until 80% saturation was reached, thereby to carry out ammonium sulfate precipitation at 4° C. for 2 hours. Thereafter, centrifugation was carried out to collect pellets, and the pellets were dissolved in 10 ml of 10 mM citrate phosphate buffer solution (pH 7.0). Then, desalting and concentration were carried out by using an ultrafiltration membrane having MWCO of 100,000, thereby to recover 1 ml of a crude liquid. Thus recovered crude liquid was purified by using Hitrap QXL column to collect a fraction of a peak of pNPG activity, thereby to obtain a purified sample. Elution was carried out by using a 10 mM citrate phosphate buffer solution (pH 7.0) and a NaCl concentration gradient (0 to 1M).
(§3) In the same manner as in Example 1, the residual glucosidase activities after glucose inhibition at a glucose concentration of from 0.1 to 200 mM were measured. Further, the residual glucosidase activities after heat treatment at a temperature of from 50 to 75° C. for 10 minutes were measured.

The nature of data set [3]: thermostability measurement (residual glucosidase activity after heat treatment). The data set is classed as physicochemical. To be noted: for Residual glucosidase activity, Temp 50° C. / Residual glucosidase activity, Temp 55° C. / Residual glucosidase activity, Temp 60° C. / Residual glucosidase activity, Temp 65° C. / Residual glucosidase activity, Temp 70° C. / Residual glucosidase activity, Temp 73° C. / Residual glucosidase activity, Temp 75° C. / Residual glucosidase activity, Untreated: Example 9; for Residual glucosidase activity, Temp 50° C.: 10 minutes at 50° C.; for Residual glucosidase activity, Temp 55° C.: 10 minutes at 55° C.; for Residual glucosidase activity, Temp 60° C.: 10 minutes at 60° C.; for Residual glucosidase activity, Temp 65° C.: 10 minutes at 65° C.; for Residual glucosidase activity, Temp 70° C.: 10 minutes at 70° C.; for Residual glucosidase activity, Temp 73° C.: 10 minutes at 73° C.; for Residual glucosidase activity, Temp 75° C.: 10 minutes at 75° C.; for Residual glucosidase activity, Untreated: no heat treatment (reference set to 100); for thermostability (in words): compared with P3AaBGL1 / β-glucosidase without the mutation. As for the experimental part:
To 10 μl of 20 mM pNPG, 10 μl of 1M sodium acetate buffer solution (pH 5.0) and 130 μl of water were added, and then 50 μl of a diluted enzyme sample preliminarily heat-treated at […] for 10 minutes was introduced for reacting them at 37° C. for 10 minutes. As a control, a diluted enzyme sample which was not subjected to the heat treatment was used, and then the reaction was carried out at 37° C. for 10 minutes, in the same manner. 100 μl of each reaction mixture was mixed with 100 μl of 2% sodium carbonate solution to terminate reaction, and then the amount of liberated p-nitrophenol was colorimetrically measured at a wavelength of 450 nm.
The ratio (%) of the colorimetric value of each reaction mixture to the colorimetric value of the control sample (untreated sample) was defined as the residual activity after heat treatment.
as §1, §2, §3

Setting [4] is: culture supernatant, relative to 0 mM glucose, Tables 7-10.

In the case of 6H05, the Activity in data set [1] (pNPG, pH 5.0, 37° C., 10 minutes, Tables 7-10) was found to be 525 mU/ml. Also, in data set [2] (setting [4]), the “Residual activity, Glc 20 mM” value is reported as 41% and the “Residual activity, Glc 50 mM” value was determined as 23%. Further, the “Residual activity, Temp 65° C.” value in data set [3] (culture supernatant warmed 10 minutes at 65° C., relative to no heat treatment, Tables 7-10) is 73%. Besides, the “Residual activity, Temp 67° C.” value in data set [3] (culture supernatant warmed 10 minutes at 67° C., relative to no heat treatment, Tables 7-10) was found to be 59%.

B1: I260F: modified-type P3AaBGL1 with I260F only (mutation 1) (protein)
chain: MKITAVIALLFSLAAASPIPVADPGVVSVSLKKRADELAFSPPFYPSPWANGQGEWAEAYQRAVAIVSQMTLDEKVNLTTGTGWELEKCVGQTGGVPRLNIGGMCLQDSPLGIRDSDYNSAFPAGVNVAATWDKNLAYLRGQAMGQEFSDKGIDVQLGPAAGPLGRSPDGGRNWEGFSPDPALTGVLFAETIKGIQDAGVVATAKHYILNEQEHFRQVAEAAGYGFNISDTISSNVDDKTIHEMYLWPFADAVRAGVGAFMCSYNQINNSYGCQNSYTLNKLLKAELGFQGFVMSDWGAHHSGVGSALAGLDMSMPGDITFDSATSFWGTNLTIAVLNGTVPQWRVDDMAVRIMAAYYKVGRDRLYQPPNFSSWTRDEYGFKYFYPQEGPYEKVNHFVNVQRNHSEVIRKLGADSTVLLKNNNALPLTGKERKVAILGEDAGSNSYGANGCSDRGCDNGTLAMAWGSGTAEFPYLVTPEQAIQAEVLKHKGSVYAITDNWALSQVETLAKQASVSLVFVNSDAGEGYISVDGNEGDRNNLTLWKNGDNLIKAAANNCNNTIVVIHSVGPVLVDEWYDHPNVTAILWAGLPGQESGNSLADVLYGRVNPGAKSPFTWGKTREAYGDYLVRELNNGNGAPQDDFSEGVFIDYRGFDKRNETPIYEFGHGLSYTTFNYSGLHIQVLNASSNAQVATETGAAPTFGQVGNASDYVYPEGLTRISKFIYPWLNSTDLKASSGDPYYGVDTAEHVPEGATDGSPQPVLPAGGGSGGNPRLYDELIRVSVTVKNTGRVAGDAVPQLYVSLGGPNEPKVVLRKFDRLTLKPSEETVWTTTLTRRDLSNWDVAAQDWVITSYPKKVHVGSSSRQLPLHAALPKVQ
In data set [1] (Example 9, Table 11), B1 displayed an Activity of 457 mU/ml. Besides, in data set [2], the “Residual glucosidase activity, Glc 0 mM” value worked out at 100%; the “Residual glucosidase activity, Glc 1 mM” value turned out to be 95.9%; the “Residual glucosidase activity, Glc 5 mM” value is given as 73.6%; the “Residual glucosidase activity, Glc 10 mM” value is recorded as 55.6%. In addition, in data set [2], the “Residual glucosidase activity, Glc 20 mM” value worked out at 39.0%; the “Residual glucosidase activity, Glc 50 mM” value is 20.2%; the “Residual glucosidase activity, Glc 100 mM” value is listed as 11.4%; the “Residual glucosidase activity, Glc 200 mM” value worked out at 6.3%. The “resistance to glucose inhibition (in words)” value in data set [2] was “increase”. For the same molecule, in data set [3], the “Residual glucosidase activity, Temp 50° C.” value is 97.0%; the “Residual glucosidase activity, Temp 55° C.” value is 91.2%; the “Residual glucosidase activity, Temp 60° C.” value stood at 87.7%; the “Residual glucosidase activity, Temp 65° C.” value was 65.2%. Also, in data set [3], the “Residual glucosidase activity, Temp 70° C.” value amounted to 22.6%; the “Residual glucosidase activity, Temp 73° C.” value is given as 1.8%; the “Residual glucosidase activity, Temp 75° C.” value came to 1.8%; the “Residual glucosidase activity, Untreated” value stood at 100%. For the same molecule, the “thermostability (in words)” value in data set [3] is on record as “increase”.

B2: N458S: modified-type P3AaBGL1 with N458S only (mutation 3) (protein)
chain: B1 chain with F260I, N458S
Molecule B2 came in with an Activity in data set [1] (Example 9, Table 11) of 586 mU/ml. For the same molecule, in data set [2], the “Residual glucosidase activity, Glc 0 mM” value was 100%; the “Residual glucosidase activity, Glc 1 mM” value amounted to 92.7%; the “Residual glucosidase activity, Glc 5 mM” value is 68.1%; the “Residual glucosidase activity, Glc 10 mM” value was found to be 52.1%. In addition, in data set [2], the “Residual glucosidase activity, Glc 20 mM” value is reported as 35.9%; the “Residual glucosidase activity, Glc 50 mM” value amounted to 17.7%; the “Residual glucosidase activity, Glc 100 mM” value is 10.4%; the “Residual glucosidase activity, Glc 200 mM” value was 6.0%. Besides, in data set [2], the “resistance to glucose inhibition (in words)” value is on record as “without decreasing”. Also, in data set [3], the “Residual glucosidase activity, Temp 50° C.” value came out at 98.6%; the “Residual glucosidase activity, Temp 55° C.” value was found to be 95.7%; the “Residual glucosidase activity, Temp 60° C.” value stood at 91.6%; the “Residual glucosidase activity, Temp 65° C.” value came to 64.2%. In addition, in data set [3], the “Residual glucosidase activity, Temp 70° C.” value was 19.4%; the “Residual glucosidase activity, Temp 73° C.” value is recorded as 0.8%; the “Residual glucosidase activity, Temp 75° C.” value was determined as 1.6%; the “Residual glucosidase activity, Untreated” value was found to be 100%. The “thermostability (in words)” value in data set [3] was “can be improved”.

B3: R629L: modified-type P3AaBGL1 with R629L only (mutation 6) (protein)
chain: B1 chain with F260I, R629L
Molecule B3 registered an Activity in data set [1] (Example 9, Table 11) of 526 mU/ml. In data set [2], the “Residual glucosidase activity, Glc 0 mM” value is listed as 100%; the “Residual glucosidase activity, Glc 1 mM” value is on record as 91.5%; the “Residual glucosidase activity, Glc 5 mM” value worked out at 67.4%; the “Residual glucosidase activity, Glc 10 mM” value came out at 53.9%. Also, in data set [2], the “Residual glucosidase activity, Glc 20 mM” value amounted to 37.6%; the “Residual glucosidase activity, Glc 50 mM” value was determined as 19.6%; the “Residual glucosidase activity, Glc 100 mM” value is 11.1%; the “Residual glucosidase activity, Glc 200 mM” value is 6.9%. The “resistance to glucose inhibition (in words)” value in data set [2] is on record as “without decreasing”. Further, in data set [3], the “Residual glucosidase activity, Temp 50° C.” value is listed as 98.7%; the “Residual glucosidase activity, Temp 55° C.” value came to 93.7%; the “Residual glucosidase activity, Temp 60° C.” value is recorded as 90.7%; the “Residual glucosidase activity, Temp 65° C.” value was found to be 71.8%. For the same molecule, in data set [3], the “Residual glucosidase activity, Temp 70° C.” value is on record as 26.5%; the “Residual glucosidase activity, Temp 73° C.” value turned out to be 3.5%; the “Residual glucosidase activity, Temp 75° C.” value was determined as 1.5%; the “Residual glucosidase activity, Untreated” value amounted to 100%. Also, the “thermostability (in words)” value in data set [3] was “can be improved”.
